Source: FireProtDB
Several values for one entry are separate records, joined by “and”; a condition that tells them apart may be missing. Equal values may be shown once.

Settings: whole UniProt chain shown
[1] = Thermus thermophilus, pH 7, Thermal, Fluorescence, potassium phosphate 50 mM, DTT 1 mM, reversible: yes
[2] = Thermotoga maritima (strain ATCC 43589 / DSM 3109 / JCM 10099 / NBRC 100826 / MSB8), pH 7.4, 25 °C, GdnHCl, CD, sodium phosphate, transition: 2, reversible: yes
[3] = Thermotoga maritima (strain ATCC 43589 / DSM 3109 / JCM 10099 / NBRC 100826 / MSB8), pH 6, 29 °C, Thermal, CD, sodium phosphate 50 mM, reversible: yes
[4] = Thermus thermophilus (strain ATCC 27634 / DSM 579 / HB8), pH 5.5, 25 °C, Urea, CD, NaOAc 20 mM, KCl 50 mM, reversible: yes
[5] = Thermus thermophilus (strain ATCC 27634 / DSM 579 / HB8), pH 5.5, Thermal, CD, Sodium acetate 5 mM, KCl 50 mM, reversible: yes

B1: 3-isopropylmalate dehydrogenase wild type, P61495 (protein)
chain: MKVAVLPGDGIGPEVTEAALKVLRALDEAEGLGLAYEVFPFGGAAIDAFGEPFPEPTRKGVEEAEAVLLGSVGGPKWDGLPRKISPETGLLSLRKSQDLFANLRPAKVFPGLERLSPLKEEIARGVDVLIVRELTGGIYFGEPRGMSEAEAWNTERYSKPEVERVARVAFEAARKRRKHVVSVDKANVLEVGEFWRKTVEEVGRGYPDVALEHQYVDAAAMHLVRSPARFDVVVTGNIFGDILSDLASVLPGSLGLLPSASLGRGTPVFEPVHGSAPDIAGKGIANPTAAILSAAMMLEHAFGLVELARKVEDAVAKALLETPPPDLGGSAGTEAFTATVLRHLA
Question: What does the source list for B1?
Answer: denaturant m value (Thermus thermophilus, pH 7, 27 °C, Urea, Fluorescence, Potassium phosphate 50 mM, transition: 3, reversible: yes): 1.2 kcal/mol/M and 1.41 kcal/mol/M; Tm (Thermus thermophilus, pH 7, Thermal, CD, phosphate 20 mM): 87 °C; Tm (Thermus thermophilus, pH 7, Thermal, CD, sodium phosphate, ammonium sulfate 1.0-1.5 M): 87 °C; Tm [1]: 30.9 °C; heat capacity change of unfolding [1]: 1.73 kcal/mol/K; unfolding enthalpy (van 't Hoff) [1]: 15.8 kcal/mol; Tm (Thermus thermophilus, pH 7.6, Thermal, Activity, potassium phosphate 20 mM, reversible: No): 84.7 °C; Tm (Thermus thermophilus, pH 7.6, Thermal, CD, phosphate 20 mM, reversible: No): 87.4 °C; Tm (Thermus thermophilus, pH 10.4, Thermal, CD, NaHCO3 20 mM): 87 °C

B2: Elongation factor Ts wild type, P43895 (protein)
chain: MSQMELIKKLREATGAGMMDVKRALEDAGWDEEKAVQLLRERGAMKAAKKADREAREGIIGHYIHHNQRVGVLVELNCETDFVARNELFQNLAKDLAMHIAMMNPRYVSAEEIPAEELEKERQIYIQAALNEGKPQQIAEKIAEGRLKKYLEEVVLLEQPFVKDDKVKVKELIQQAIAKIGENIVVRRFCRFELGA
Question: Which Tm (Thermus thermophilus (strain ATCC 27634 / DSM 579 / HB8), pH 7, Thermal, CD, Phosphate 10 mM, reversible: No) does the source give for B2 here?
Answer: 115 °C

B3: wild type, Q9WZ62 (protein)
chain: MKKLLAVSILLVSIVIFSGAIDEIKSRGYLLVGLSADFPPFEFVDENGNIVGFDVDLAKEIARRLGVELKIVDMTFDGLIPSLLTKKIDVIISGMTITEERKKVVAFSDPYFDAGQVIVVRKDSDFRPKTYEDLVGKTVAVQIGTTGDIEVSKYDGIKVVRFDKFTDAFLELKRGRADAVVLDSATARAFVAKNPDLVISSGVLSSEQYGIAVRKEDTDLLEFINSVLRELKKSPYDVLIEKWFSE
Question: Which denaturant m value [2] does the source give for B3 here?
Answer: 2.63 kcal/mol/M and 2.86 kcal/mol/M

Question: And the “denaturant midpoint (higher = more stable)” value [2]?
Answer: 5 M and 4.5 M

Question: What about the unfolding free energy [2] of the same protein?
Answer: 12.9 kcal/mol and 13.1 kcal/mol

B4: Chemotaxis protein CheY wild type, Q56312 (protein)
chain: MGKRVLIVDDAAFMRMMLKDIITKAGYEVAGEATNGREAVEKYKELKPDIVTMDITMPEMNGIDAIKEIMKIDPNAKIIVCSAMGQQAMVIEAIKAGAKDFIVKPFQPSRVVEALNKVSK
Question: For B4, which “heat capacity change of unfolding” value [3] is on record?
Answer: 1.17 kcal/mol/K

Question: What about the unfolding free energy [3] of the same protein?
Answer: 9.54 kcal/mol

Question: What about the Tm (Thermotoga maritima (strain ATCC 43589 / DSM 3109 / JCM 10099 / NBRC 100826 / MSB8), pH 6, Thermal, CD, sodium phosphate 50 mM, reversible: yes) of the same protein?
Answer: 101 °C

B5: Inorganic pyrophosphatase wild type, P38576 (protein)
chain: MANLKSLPVGDKAPEVVHMVIEVPRGSGNKYEYDPDLGAIKLDRVLPGAQFYPGDYGFIPSTLAEDGDPLDGLVLSTYPLLPGVVVEVRVVGLLLMEDEKGGDAKVIGVVAEDQRLDHIQDIGDVPEGVKQEIQHFFETYKALEAKKGKWVKVTGWRDRKAALEEVRACIARYKG
Question: Which Tm (Thermus thermophilus (strain ATCC 27634 / DSM 579 / HB8), pH 7, Thermal, CD, HEPES 20 mM, MgCl2 5 mM) does the source give for B5 here?
Answer: 99 °C

Question: And the Tm (Thermus thermophilus (strain ATCC 27634 / DSM 579 / HB8), pH 7, Thermal, CD, HEPES 20 mM)?
Answer: 86 °C

B6: Ribonuclease H wild type, P29253 (protein)
chain: MNPSPRKRVALFTDGACLGNPGPGGWAALLRFHAHEKLLSGGEACTTNNRMELKAAIEGLKALKEPCEVDLYTDSHYLKKAFTEGWLEGWRKRGWRTAEGKPVKNRDLWEALLLAMAPHRVRFHFVKGHTGHPENERVDREARRQAQSQAKTPCPPRAPTLFHEEA
Question: For B6, which denaturant m value [4] is on record?
Answer: 2 kcal/mol/M

Question: And the unfolding free energy [4]?
Answer: 12.8 kcal/mol

Question: And the Tm [5]?
Answer: 86 °C

Question: And the “heat capacity change of unfolding” value [5]?
Answer: 1.8 kcal/mol/K

Question: What about the “unfolding enthalpy (van 't Hoff)” value [5] of the same protein?
Answer: 131 kcal/mol

B7: Dihydrofolate reductase wild type, Q60034 (protein)
chain: MAKVIFVLAMDVSGKIASSVESWSSFEDRKNFRKITTEIGNVVMGRITFEEIGRPLPERLNVVLTRRPKTSNNPSLVFFNGSPADVVKFLEGKGYERVAVIGGKTVFTEFLREKLVDELFVTVEPYVFGKGIPFFDEFEGYFPLKLLEMRRLNERGTLFLKYSVEKSHR
Question: With B7 as the protein, how does the denaturant m value (Thermotoga maritima (strain ATCC 43589 / DSM 3109 / JCM 10099 / NBRC 100826 / MSB8), pH 7.8, 5 °C, GdnHCl, CD, Potassium phosphate 10 mM, reversible: yes) read?
Answer: 13.2 kcal/mol/M

Question: And the denaturant m value (Thermotoga maritima (strain ATCC 43589 / DSM 3109 / JCM 10099 / NBRC 100826 / MSB8), pH 7.8, 15 °C, GdnHCl, CD, Potassium phosphate 10 mM, reversible: yes)?
Answer: 9.4 kcal/mol/M

Question: What about the denaturant m value (Thermotoga maritima (strain ATCC 43589 / DSM 3109 / JCM 10099 / NBRC 100826 / MSB8), pH 7.8, 15 °C, Urea, CD, Potassium phosphate 10 mM, reversible: yes) of the same protein?
Answer: 4.71 kcal/mol/M

Question: What about the denaturant m value (Thermotoga maritima (strain ATCC 43589 / DSM 3109 / JCM 10099 / NBRC 100826 / MSB8), pH 7.8, 25 °C, GdnHCl, CD, Potassium phosphate 10 mM, reversible: yes) of the same protein?
Answer: 7.15 kcal/mol/M

Question: What about the denaturant m value (Thermotoga maritima (strain ATCC 43589 / DSM 3109 / JCM 10099 / NBRC 100826 / MSB8), pH 7.8, 37 °C, GdnHCl, CD, Potassium phosphate 10 mM, reversible: yes) of the same protein?
Answer: 5.98 kcal/mol/M

Question: What about the denaturant m value (Thermotoga maritima (strain ATCC 43589 / DSM 3109 / JCM 10099 / NBRC 100826 / MSB8), pH 7.8, 55 °C, GdnHCl, CD, Potassium phosphate 10 mM, reversible: yes) of the same protein?
Answer: 6.24 kcal/mol/M

Question: And the denaturant m value (Thermotoga maritima (strain ATCC 43589 / DSM 3109 / JCM 10099 / NBRC 100826 / MSB8), pH 7.8, 70 °C, GdnHCl, CD, Potassium phosphate 10 mM, reversible: yes)?
Answer: 7.56 kcal/mol/M
